Positions count from the first letter of the chain named. In names and notes the source's numbering stands. No end group written: not given here. TMR = tetramethyl rhodamine dye
T1: Rb^P I703V (human, UniProt P06400 380-788, I703V)
T1 construct: also called variant 65
T1 sequence (looked up): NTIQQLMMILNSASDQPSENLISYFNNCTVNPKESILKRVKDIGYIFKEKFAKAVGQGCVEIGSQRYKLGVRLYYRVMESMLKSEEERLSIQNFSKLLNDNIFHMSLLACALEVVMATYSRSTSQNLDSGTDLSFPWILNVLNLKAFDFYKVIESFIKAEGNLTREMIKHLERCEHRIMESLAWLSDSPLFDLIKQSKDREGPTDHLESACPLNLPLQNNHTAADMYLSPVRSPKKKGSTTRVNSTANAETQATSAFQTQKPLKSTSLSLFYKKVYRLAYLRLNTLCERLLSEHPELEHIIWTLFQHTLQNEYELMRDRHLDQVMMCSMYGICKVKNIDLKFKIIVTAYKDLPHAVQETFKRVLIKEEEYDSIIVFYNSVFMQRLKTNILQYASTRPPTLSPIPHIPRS

T2: Rb^P A490V (human, UniProt P06400 380-788, A490V)
T2 construct: also called variant 17
T2 sequence (looked up): T1 sequence (looked up) with A111V, V324I

T3: Rb^P M695I (human, UniProt P06400 380-788, M695I)
T3 construct: also called variant 61
T3 sequence (looked up): T1 sequence (looked up) with M316I, V324I

T4: Rb^P S671F (human, UniProt P06400 380-788, S671F)
T4 construct: also called variant 53
T4 sequence (looked up): T1 sequence (looked up) with S292F, V324I

T5: Rb^P R451S (human, UniProt P06400 380-788, R451S)
T5 construct: also called variant 7
T5 sequence (looked up): T1 sequence (looked up) with R72S, V324I

B1: TMR-E2F1^TD, peptide of the E2F1 transactivation domain (peptide)
peptide: {TMR}-GEGIRDLFDCDFGDLTPLD
notes: also called E2F^TD; source: synthetic peptide, bought: GenScript
B2: TMR-E7^LxCxE, LxCxE peptide of the E7 oncoprotein from HPV (peptide)
peptide: DLYCYEQLN
modifications: also: TMR label, position not given here
notes: source: synthetic peptide, bought: GenScript

Columns and labels:
Test in all cases: fluorescence polarisation; 37 °C, after the 25 °C reading ramped over 7 min to 37 °C and 2 min incubation; unlabeled Rb^P against 1.5 nM TMR-E2F1^TD or 7.5 nM TMR-E7^LxCxE; 25 mM Tris pH 8.0, 200 mM NaCl, 1 mM DTT, 0.1% Tween-20; apparent Kd
Conditions in all cases: both partners purified
[1] = target: T1, Rb^P I703V
[2] = target: T2, Rb^P A490V
[3] = target: T3, Rb^P M695I
[4] = target: T4, Rb^P S671F
[5] = target: T5, Rb^P R451S

Row | Binder | Kd [1] | Kd [2] | Kd [3] | Kd [4] | Kd [5]
1 | B1 | 0.099 µM | 0.087 µM | 0.165 µM | 0.046 µM | 0.044 µM
2 | B2 | 0.053 µM | 0.033 µM | 0.093 µM | 0.019 µM | 0.017 µM

Reference: PMC11931385, “Structural and functional analysis of cancer-associated missense variants in the retinoblastoma protein pocket domain” (The Journal of Biological Chemistry, 2025)
